Assay results taken from article PMC5394233, “Structural and functional analysis of the human POT1-TPP1 telomeric complex” (Nature Communications, 2017).
Where a chain is given by its changes, count along the chain named.

Assays:
Test in all cases: fluorescence polarization; FP: 20 mM Hepes pH 7.5, 100 mM KCl, 2 mM MgCl2, 1 mM EDTA, 2 mM DTT, 1 mg/ml BSA, 5% glycerol, 75 nM polyT50 competitor, 2.5 nM probe, room temperature 30 min
[1] = target: flPOT1 C591W;TPP1(87) (Homo sapiens;Homo sapiens, UniProt Q9NUX5;Q96AP0 1-634;1-458, C591W|); settings: protein: recombinant;recombinant, tags: N-terminal His6-pMocr, TEV-cleaved;N-terminal His6-MBP, copies: 1;1, label: 5' 6-FAM, single strand
[2] = target: flPOT1 Q623H;TPP1(87) (Homo sapiens;Homo sapiens, UniProt Q9NUX5;Q96AP0 1-634;1-458, Q623H|); settings: protein: recombinant;recombinant, tags: N-terminal His6-pMocr, TEV-cleaved;N-terminal His6-MBP, copies: 1;1, label: 5' 6-FAM, single strand
[3] = target: T1, flPOT1 WT (Homo sapiens, UniProt Q9NUX5 1-634); settings: protein: recombinant; tags: N-terminal His6-pMocr, TEV-cleaved; label: 5' 6-FAM; single strand
T1 sequence: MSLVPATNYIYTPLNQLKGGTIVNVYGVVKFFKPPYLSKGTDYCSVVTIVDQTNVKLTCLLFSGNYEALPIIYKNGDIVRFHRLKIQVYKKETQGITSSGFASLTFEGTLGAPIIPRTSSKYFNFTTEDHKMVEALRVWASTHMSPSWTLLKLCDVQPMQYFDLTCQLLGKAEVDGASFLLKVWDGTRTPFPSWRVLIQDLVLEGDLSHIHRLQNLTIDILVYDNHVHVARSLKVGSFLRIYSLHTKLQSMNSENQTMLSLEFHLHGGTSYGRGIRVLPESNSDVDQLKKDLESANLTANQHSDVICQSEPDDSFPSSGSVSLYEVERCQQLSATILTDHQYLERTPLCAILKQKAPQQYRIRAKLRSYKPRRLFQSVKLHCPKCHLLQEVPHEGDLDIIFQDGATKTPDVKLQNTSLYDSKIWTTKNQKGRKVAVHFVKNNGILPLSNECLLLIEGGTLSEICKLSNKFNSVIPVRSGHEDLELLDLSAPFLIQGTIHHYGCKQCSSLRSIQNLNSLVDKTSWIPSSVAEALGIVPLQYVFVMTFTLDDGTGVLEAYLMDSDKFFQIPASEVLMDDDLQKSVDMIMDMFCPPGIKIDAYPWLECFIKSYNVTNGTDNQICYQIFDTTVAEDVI

[4] = target: flPOT1 P446Q;TPP1(87) (Homo sapiens;Homo sapiens, UniProt Q9NUX5;Q96AP0 1-634;1-458, P446Q|); settings: protein: recombinant;recombinant, tags: N-terminal His6-pMocr, TEV-cleaved;N-terminal His6-MBP, copies: 1;1, label: 5' 6-FAM, single strand
[5] = target: T2, flPOT1 Q623H (Homo sapiens, UniProt Q9NUX5 1-634, Q623H); settings: protein: recombinant; tags: N-terminal His6-pMocr, TEV-cleaved; label: 5' 6-FAM; single strand
T2 sequence: T1 sequence with Q623H

[6] = target: T3, POT1C (Homo sapiens, UniProt Q9NUX5 330-634); settings: protein: recombinant; tags: N-terminal His6-pMocr, TEV-cleaved; label: 5' 6-FAM; single strand
T3 sequence: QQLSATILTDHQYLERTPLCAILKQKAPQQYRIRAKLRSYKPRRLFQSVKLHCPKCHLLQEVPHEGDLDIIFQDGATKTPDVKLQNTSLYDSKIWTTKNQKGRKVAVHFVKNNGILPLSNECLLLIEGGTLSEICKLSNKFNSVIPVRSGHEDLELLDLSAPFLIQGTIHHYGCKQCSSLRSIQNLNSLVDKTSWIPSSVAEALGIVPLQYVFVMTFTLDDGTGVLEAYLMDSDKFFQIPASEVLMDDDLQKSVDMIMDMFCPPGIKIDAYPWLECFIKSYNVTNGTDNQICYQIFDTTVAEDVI

Chain of flPOT1 C591W;TPP1(87) (Q9NUX5 whole entry C591W, chain 1 of 2): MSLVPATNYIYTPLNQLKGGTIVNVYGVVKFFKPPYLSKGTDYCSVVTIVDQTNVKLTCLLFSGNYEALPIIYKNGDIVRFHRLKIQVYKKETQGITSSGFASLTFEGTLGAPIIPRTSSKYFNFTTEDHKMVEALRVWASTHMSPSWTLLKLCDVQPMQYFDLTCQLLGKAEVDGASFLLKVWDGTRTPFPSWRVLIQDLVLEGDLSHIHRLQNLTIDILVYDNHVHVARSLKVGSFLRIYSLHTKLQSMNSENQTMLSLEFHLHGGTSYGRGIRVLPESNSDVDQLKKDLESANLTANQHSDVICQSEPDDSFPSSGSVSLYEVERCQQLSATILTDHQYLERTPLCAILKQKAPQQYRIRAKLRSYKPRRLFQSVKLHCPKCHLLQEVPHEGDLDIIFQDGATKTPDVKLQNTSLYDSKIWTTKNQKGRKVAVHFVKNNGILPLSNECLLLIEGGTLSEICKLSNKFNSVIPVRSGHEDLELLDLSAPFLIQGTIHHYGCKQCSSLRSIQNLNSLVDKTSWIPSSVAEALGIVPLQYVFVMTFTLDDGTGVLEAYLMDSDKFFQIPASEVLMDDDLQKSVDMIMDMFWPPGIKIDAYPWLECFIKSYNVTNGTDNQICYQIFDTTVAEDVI
Chain of flPOT1 C591W;TPP1(87) (Q96AP0 whole entry, chain 2 of 2): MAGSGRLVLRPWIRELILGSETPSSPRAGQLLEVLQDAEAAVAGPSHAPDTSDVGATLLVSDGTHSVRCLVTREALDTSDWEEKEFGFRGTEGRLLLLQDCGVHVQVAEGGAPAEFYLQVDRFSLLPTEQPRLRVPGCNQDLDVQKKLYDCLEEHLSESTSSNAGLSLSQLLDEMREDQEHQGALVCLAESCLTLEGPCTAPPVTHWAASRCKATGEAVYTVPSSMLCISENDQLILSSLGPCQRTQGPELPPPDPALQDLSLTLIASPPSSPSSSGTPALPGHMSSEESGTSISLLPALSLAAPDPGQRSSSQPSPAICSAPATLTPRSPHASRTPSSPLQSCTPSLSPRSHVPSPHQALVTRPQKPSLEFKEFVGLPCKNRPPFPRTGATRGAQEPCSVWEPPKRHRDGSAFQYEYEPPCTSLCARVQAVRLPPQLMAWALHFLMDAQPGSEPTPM
Chain of flPOT1 P446Q;TPP1(87) (Q9NUX5 whole entry P446Q, chain 1 of 2): as the sequence (Q9NUX5 whole entry C591W, chain 1 of 2) above, with P446Q, W591C counted along it
Chain of flPOT1 P446Q;TPP1(87) (Q96AP0 whole entry, chain 2 of 2): as the sequence (Q96AP0 whole entry, chain 2 of 2) above
Chain of flPOT1 Q623H;TPP1(87) (Q9NUX5 whole entry Q623H, chain 1 of 2): as the sequence (Q9NUX5 whole entry C591W, chain 1 of 2) above, with W591C, Q623H counted along it
Chain of flPOT1 Q623H;TPP1(87) (Q96AP0 whole entry, chain 2 of 2): as the sequence (Q96AP0 whole entry, chain 2 of 2) above

B1: telomeric 18mer (TTAGGG)3 (ssDNA)
DNA: TTAGGGTTAGGGTTAGGG
B1 was tested, and the Kd [1] was 15.6 ± 2.5 nM, the Kd [2] was 8.9 ± 1 nM and the Kd [3] was ~20 nM. The Kd [4] was 10.3 ± 1 nM, the Kd [5] was ~20 nM and the binding result [6] was “no binding”.
